Source: paper PMC4373775

Target: T1, ParB (Mycobacterium tuberculosis H37Rv) (UniProt P9WIJ9)
T1 sequence: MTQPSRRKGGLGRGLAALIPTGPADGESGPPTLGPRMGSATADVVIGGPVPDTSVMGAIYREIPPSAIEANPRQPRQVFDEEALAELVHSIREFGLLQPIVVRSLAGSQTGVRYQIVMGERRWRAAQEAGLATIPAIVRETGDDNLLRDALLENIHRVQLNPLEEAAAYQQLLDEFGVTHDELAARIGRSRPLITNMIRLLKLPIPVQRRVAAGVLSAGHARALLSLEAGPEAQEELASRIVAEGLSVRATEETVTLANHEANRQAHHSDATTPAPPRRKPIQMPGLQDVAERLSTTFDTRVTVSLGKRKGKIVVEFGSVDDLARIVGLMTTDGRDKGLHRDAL
Assay: EMSA

Sequence: GCGAGTGGAGGGACGGCGTGAGTGCTCCGTGGGGCCCGGTGGCCGCTGGACCGTCCGCGCTCGTAAGGTCGGGCCAGGCTTCAACTATCGAACCATTCCAGCGGGAAATGACACCACCGACACCGACGCCTGAGGCCGCGCACAATCCGACGATGAATGTTTCACGTGAAACATCGACAGAATTCGACACCCCCATCGGCGCTGCAGCAGAACGTGCGATGCG (double strand) [parS probe]
- binding: binds
